Source: publication PMC7021315

Legend:
[1] = target: recombinant Zika virus E protein (soluble E, lacking the stem-anchor region) (Zika virus); assay: SEC; Superdex 200 Increase 3.2/300 column, ÄKTA FPLC, TAN buffer pH 8.0
[2] = target: recombinant Zika virus E protein (soluble E, lacking the stem-anchor region) (Zika virus); assay: rate zonal ultracentrifugation in sucrose gradients; 3-5 ug E protein on sucrose gradients, 20 h at 38,000 rpm, 15°C, Beckman SW40 rotor; fractions quantified by ELISA (Strep-Tactin capture, mab A1 detection)

“recombinant Zika virus E protein (soluble E, lacking the stem-anchor region) (domain or fragment)” was tested, and the stoichiometry N [1] was 2 and the stoichiometry N [2] was 2.
